Experiments:
Experiment in all cases: flow cytometry, transfected 293T cells
[1] = biological target: T1, muCDH19(44-139)::huCDH19(142-249)::muCDH19(248-770) with Flag tag (construct D, Hu EC2) (human/mouse chimera)
T1 construct: leader left out; the entry starts at residue 44; also called C137913
T1 chain: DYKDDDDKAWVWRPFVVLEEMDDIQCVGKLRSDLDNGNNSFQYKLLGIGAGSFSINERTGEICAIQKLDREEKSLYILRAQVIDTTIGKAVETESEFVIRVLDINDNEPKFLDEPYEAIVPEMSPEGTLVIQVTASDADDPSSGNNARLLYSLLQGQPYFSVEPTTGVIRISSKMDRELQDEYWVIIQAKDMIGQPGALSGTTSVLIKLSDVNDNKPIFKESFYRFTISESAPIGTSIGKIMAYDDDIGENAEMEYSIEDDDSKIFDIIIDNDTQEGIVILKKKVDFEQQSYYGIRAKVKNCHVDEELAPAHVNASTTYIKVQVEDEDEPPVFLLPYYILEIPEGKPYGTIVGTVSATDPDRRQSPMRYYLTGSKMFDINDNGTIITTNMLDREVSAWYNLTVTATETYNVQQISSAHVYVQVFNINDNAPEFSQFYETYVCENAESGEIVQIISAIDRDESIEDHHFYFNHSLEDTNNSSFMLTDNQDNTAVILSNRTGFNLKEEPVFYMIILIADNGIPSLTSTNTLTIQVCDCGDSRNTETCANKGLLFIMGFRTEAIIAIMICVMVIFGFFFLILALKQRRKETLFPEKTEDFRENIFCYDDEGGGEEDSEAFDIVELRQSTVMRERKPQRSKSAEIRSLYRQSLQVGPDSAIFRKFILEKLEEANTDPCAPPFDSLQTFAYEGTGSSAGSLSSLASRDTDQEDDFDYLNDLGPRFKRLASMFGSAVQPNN
Description: (§1) The experiment included assaying the anti-CDH19 antibodies against mouse Cadherin19 to determine suitability for binning on these human/mouse chimeras.

[2] = biological target: T2, muCDH19(44-770) with Flag tag (construct I, Mu EC1-5) (mouse)
T2 construct: leader left out; the entry starts at residue 44; also called Mo EC1-5; mouse Cadherin19
T2 chain: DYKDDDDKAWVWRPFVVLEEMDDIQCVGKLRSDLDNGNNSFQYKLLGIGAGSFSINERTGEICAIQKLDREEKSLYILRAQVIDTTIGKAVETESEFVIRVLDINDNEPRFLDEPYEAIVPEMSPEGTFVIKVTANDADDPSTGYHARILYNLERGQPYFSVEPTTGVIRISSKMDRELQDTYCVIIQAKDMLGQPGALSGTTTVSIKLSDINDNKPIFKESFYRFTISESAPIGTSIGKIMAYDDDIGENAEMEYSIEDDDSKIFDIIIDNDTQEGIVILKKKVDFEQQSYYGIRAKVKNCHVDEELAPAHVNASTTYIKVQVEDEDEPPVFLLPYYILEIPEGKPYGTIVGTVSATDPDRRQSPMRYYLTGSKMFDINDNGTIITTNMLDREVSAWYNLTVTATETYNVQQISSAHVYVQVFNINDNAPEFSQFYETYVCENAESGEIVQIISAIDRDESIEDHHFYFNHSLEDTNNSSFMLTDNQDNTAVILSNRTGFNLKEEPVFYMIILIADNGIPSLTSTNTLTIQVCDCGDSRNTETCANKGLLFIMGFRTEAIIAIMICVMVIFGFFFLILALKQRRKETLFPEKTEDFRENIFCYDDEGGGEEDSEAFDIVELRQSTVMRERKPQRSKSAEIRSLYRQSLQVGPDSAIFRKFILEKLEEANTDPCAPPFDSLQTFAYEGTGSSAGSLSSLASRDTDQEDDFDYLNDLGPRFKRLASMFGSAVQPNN
Description: as §1

[3] = biological target: T3, muCDH19(44-362)::huCDH19(365-772) with Flag tag (construct G, Hu EC4-5) (human/mouse chimera)
T3 construct: leader left out; the entry starts at residue 44; also called C137917
T3 chain: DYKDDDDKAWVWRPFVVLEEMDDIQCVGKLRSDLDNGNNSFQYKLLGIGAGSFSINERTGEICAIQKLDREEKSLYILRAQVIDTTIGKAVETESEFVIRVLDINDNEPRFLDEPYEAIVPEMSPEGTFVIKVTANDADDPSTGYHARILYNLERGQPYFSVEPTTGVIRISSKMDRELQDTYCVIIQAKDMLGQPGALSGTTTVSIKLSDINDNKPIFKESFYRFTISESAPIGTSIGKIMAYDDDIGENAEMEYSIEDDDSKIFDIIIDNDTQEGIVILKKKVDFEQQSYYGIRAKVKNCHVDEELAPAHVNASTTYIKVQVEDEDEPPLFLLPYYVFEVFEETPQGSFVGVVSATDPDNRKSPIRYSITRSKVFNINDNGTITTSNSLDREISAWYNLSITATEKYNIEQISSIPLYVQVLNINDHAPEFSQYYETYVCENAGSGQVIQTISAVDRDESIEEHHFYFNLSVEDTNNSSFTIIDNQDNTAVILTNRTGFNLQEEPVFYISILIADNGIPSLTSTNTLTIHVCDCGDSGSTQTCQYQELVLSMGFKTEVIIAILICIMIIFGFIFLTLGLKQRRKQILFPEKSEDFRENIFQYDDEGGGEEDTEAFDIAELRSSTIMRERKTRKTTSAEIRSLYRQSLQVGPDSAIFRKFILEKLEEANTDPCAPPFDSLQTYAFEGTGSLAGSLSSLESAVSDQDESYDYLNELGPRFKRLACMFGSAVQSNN
Description: as §1

Measured: binding result

B1: anti-CDH19 antibody 2G6 (Ab ID 13588) (antibody, human IgG1, lambda, V domains shown)
VH: QVQLVESGGGVVQPGRSLRLSCAASGFTFSSYGMHWVRQAPGKGLEWVAFIWYDGSNKYYADSVKDRFTISRDNSKNTLYLQMKSLRAEDTAVYYCARRAGIIGTIGYYYGMDVWGQGTTVTVSS
VL: SYELTQPPSVSVSPGQTASITCSGDRLGEKYTCWYQQRPGQSPLLVIYQDTKRPSGIPERFSGSNSGNTATLTISGTQAMDEADYYCQAWDSSTVVFGGGTKLTVLG
notes: Bin 4
binds: all assays above

Reference: patent US20220127354A1 (Amgen, published 2022)
